Experimental data as given in the supplement of paper PMC10567573.

B1: TRIM15 (parent)
chain: LSQMGAQSSGKILLCPLCQEEEQA

Variants of: B1
Assay: protein stability index of a GFP-peptide fusion (GPS, HEK-293T) (PSI 1-6); higher = more stable
Details: c terminus: a fixed tail appended
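Further: lentivirally expressed fusions sorted by FACS into six bins by GFP to DsRed ratio, PSI derived from sequencing read proportions per bin multiplied by bin number.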

Variant | protein stability index
LSQMGAQSSGKILLIPLCQEEEQA | 3.77
LSQMGAQSSGKILLGPLCQEEEQA | 5.51
LSQMGAQSSGKILLPPLCQEEEQA | 4.96
LSQMGAQSSGKILLHPLCQEEEQA | 4.74
LSQMGAQSSGKILLFPLCQEEEQA | 4.16
LSQMGAQSSGKILLKPLCQEEEQA | 4.65
LSQMGAQSSGKGLLCPLCQEEEQA | 4.59
LSQMGAQSSGKVLLCPLCQEEEQA | 4.5
LSQMGAQSSGKFLLCPLCQEEEQA | 3.52
LSQMGAQSSGKDLLCPLCQEEEQA | 4.21
LSQMGAQSSGKHLLCPLCQEEEQA | 3.51
LSQMGAQSSGKTLLCPLCQEEEQA | 3.42
LSQMGAQSSGKMLLCPLCQEEEQA | 3.79
LSQMGAQSSGKILLCWLCQEEEQA | 2.9
LSQMGAQSSGKILLCALCQEEEQA | 2.92
LSQMGAQSSGKILLCQLCQEEEQA | 4.22
LSQMGAQSSGKILLCPLCQEEFQA | 2.6
LSQMGAQSSGKILLCPLCQEEDQA | 3.41
LSQMGAQSSGKILLCPLCQEEVQA | 4.13
LSQMGAQSSGKILLCPLCQEESQA | 2.89
GSQMGAQSSGKILLCPLCQEEEQA | 3.96
SSQMGAQSSGKILLCPLCQEEEQA | 3.55
HSQMGAQSSGKILLCPLCQEEEQA | 3.94
DSQMGAQSSGKILLCPLCQEEEQA | 4.53

Variant | protein stability index
LSQMGAQSSEKILLCPLCQEEEQA | 3.89
LSQMGAQSSNKILLCPLCQEEEQA | 4.54
LSQMGAQSSCKILLCPLCQEEEQA | 3.86
LSQMGAQSSLKILLCPLCQEEEQA | 2.53
LSQMGAQSSSKILLCPLCQEEEQA | 3.79
LSQMGAQSSMKILLCPLCQEEEQA | 3.83
LSQMGAQSSTKILLCPLCQEEEQA | 3.71
LSQMGAQSSFKILLCPLCQEEEQA | 2.74
LSQMGAQSSGKILLCPLCQEFEQA | 2.4
LSQMGAQSSGKILLCPLCQEWEQA | 2.89
LSQMGAQSSGKILLCPLCQENEQA | 2.92
LSQMGAQSSGKILLCPLCQEIEQA | 2.26
LSQMGAQSSGKILLCPLCQEKEQA | 2.85
LSQMGAQSSGKILLCPLCQEVEQA | 3.08
LSQMGAQSSGKILLCPLCQEQEQA | 2.91
LSQMGAQSSGKILLCPLCQETEQA | 3.36
LSQMGAQSSGKILLCPLCQEMEQA | 2.88
LSQMGAQSSGKILLCPLCQEGEQA | 2.83
LSQMGAQSSGKILLCPLCQEAEQA | 3.22
LSQMGARSSGKILLCPLCQEEEQA | 3.5
LSQMGASSSGKILLCPLCQEEEQA | 3.77
LSQMGALSSGKILLCPLCQEEEQA | 2.8
LSQMGAFSSGKILLCPLCQEEEQA | 2.88
LSQMGAISSGKILLCPLCQEEEQA | 2.74

Variant | protein stability index
LSQMGAESSGKILLCPLCQEEEQA | 3.52
LSQMGAHSSGKILLCPLCQEEEQA | 4.53
LSQMGAYSSGKILLCPLCQEEEQA | 3.24
LSQMGAVSSGKILLCPLCQEEEQA | 2.76
LSQMGAKSSGKILLCPLCQEEEQA | 3.47
LSQMGATSSGKILLCPLCQEEEQA | 3.99
LSQMGAWSSGKILLCPLCQEEEQA | 3.84
LSQMGAQSSGKILLCPLCREEEQA | 3.54
LSQMGAQSSGKILLCPLCVEEEQA | 4.04
LSQMGAQSSGKILLCPLCKEEEQA | 3.46
LSQMGAQSSGKILLCPLCTEEEQA | 3.83
LSQMGAQSSGKILLCPLCEEEEQA | 4.01
LSQMGAQSSGKILLCPLCWEEEQA | 2.78
LSQMGAQSSGKILLCPLCPEEEQA | 4.42
LSQMGAQSSGKILLCPLCGEEEQA | 3.98
LSQMGAQSSGKILLCPLCMEEEQA | 3.19
LSQMGAQSSGKILLCPLCAEEEQA | 4.35
LSQMGAQSSGKILNCPLCQEEEQA | 3.56
LSQMGAQSSGKILWCPLCQEEEQA | 2.93
LSQMGAQSSGKILYCPLCQEEEQA | 4.23
LSQMGAQSSGKILCCPLCQEEEQA | 3.94
LSQMGAQSSGKILFCPLCQEEEQA | 3.59
LSQMGAQSSGKILTCPLCQEEEQA | 4.66
LSQMGAQSSGKILICPLCQEEEQA | 3.91

Variant | protein stability index
LSQMYAQSSGKILLCPLCQEEEQA | 2.9
LSQMHAQSSGKILLCPLCQEEEQA | 3.14
LSQMCAQSSGKILLCPLCQEEEQA | 3.92
LSQMRAQSSGKILLCPLCQEEEQA | 3.32
LSQMKAQSSGKILLCPLCQEEEQA | 3.87
LSQMPAQSSGKILLCPLCQEEEQA | 2.76
LSQMIAQSSGKILLCPLCQEEEQA | 2.98
LQQMGAQSSGKILLCPLCQEEEQA | 4.06
LIQMGAQSSGKILLCPLCQEEEQA | 1.9
LFQMGAQSSGKILLCPLCQEEEQA | 2.96
LAQMGAQSSGKILLCPLCQEEEQA | 2.6
LHQMGAQSSGKILLCPLCQEEEQA | 3.43
LEQMGAQSSGKILLCPLCQEEEQA | 4
LKQMGAQSSGKILLCPLCQEEEQA | 3.14
LSQPGAQSSGKILLCPLCQEEEQA | 4.94
LSQRGAQSSGKILLCPLCQEEEQA | 3.92
LSQNGAQSSGKILLCPLCQEEEQA | 3.6
LSQGGAQSSGKILLCPLCQEEEQA | 3.2
LSQVGAQSSGKILLCPLCQEEEQA | 2.81
LSQLGAQSSGKILLCPLCQEEEQA | 4.22
LSQSGAQSSGKILLCPLCQEEEQA | 4.08
LSQCGAQSSGKILLCPLCQEEEQA | 4.13
